Experimental data taken from article PMC4176161.

What was measured:
[1] = molecular target: T1, …3 (SEP3) (Arabidopsis thaliana), O22456; assay: native gel or EMSA; settings: remark: other sources report otherwise
T1 chain: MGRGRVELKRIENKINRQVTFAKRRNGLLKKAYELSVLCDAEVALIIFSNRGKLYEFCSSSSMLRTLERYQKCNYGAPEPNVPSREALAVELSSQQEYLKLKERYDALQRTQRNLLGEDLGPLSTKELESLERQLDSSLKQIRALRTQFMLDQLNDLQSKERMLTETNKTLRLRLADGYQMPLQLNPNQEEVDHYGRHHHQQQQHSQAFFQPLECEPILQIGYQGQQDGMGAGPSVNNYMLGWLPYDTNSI

[2] = molecular target: T1, …3 (SEP3) (Arabidopsis thaliana), O22456; assay: native gel or EMSA; settings: remark: other sources report otherwise

B1: …3 (SEP3), O22456 1-251 (natural protein)
chain: MGRGRVELKRIENKINRQVTFAKRRNGLLKKAYELSVLCDAEVALIIFSNRGKLYEFCSSSSMLRTLERYQKCNYGAPEPNVPSREALAVELSSQQEYLKLKERYDALQRTQRNLLGEDLGPLSTKELESLERQLDSSLKQIRALRTQFMLDQLNDLQSKERMLTETNKTLRLRLADGYQMPLQLNPNQEEVDHYGRHHHQQQQHSQAFFQPLECEPILQIGYQGQQDGMGAGPSVNNYMLGWLPYDTNSI
- stoichiometry N [1]: 2
- stoichiometry N [2]: 4
